Tests used:
[1] = Peroxidase activity: oxidation of tetramethyl-p-phenylenediamine at 611 nm; format: biochemical; details: purified preparations from either expression system
Description: (§1) To test for prostaglandin endoperoxide synthase type catalytic activity of recombinant 20α-HSD, both cyclooxygenase activity (which converts arachidonic acid into the hydroperoxide, PGG2) and peroxidase activity (which reduces PGG2 and other hydroperoxides to the corresponding alcohol, such as PGH2) were measured. The cyclooxygenase assay was performed by following the conversion of [^3 H] arachidonic acid [Dupont-New England Nuclear Research Products, Boston, Mass.] to [^3 H]PHG2 and [^3 H]PHE2 [Mitchell et al. Proc. Natl. Acad. Sci. USA 90:11693-11697, 1994]. Peroxidase activity was measured by monitoring the oxidation of N,N,N',N', tetramethyl-p-phenylenediamine at 611 nm [Iwata et al., Arch. Biochem. Biophys. 282:70-77 (1990)].

purified rat liver PKC = experiment: In vitro kinase assay, phosphorylation of 20α-HSD by PKC; format: biochemical; details: bacterially expressed enzyme, [γ-32P]ATP
Description: (§2) Purified recombinant 20α-HSD (of the bacterial expression system) was incubated with various protein kinases after an initial incubation with alkaline phosphatase (to ensure that the protein was in a non-phosphorylated state) and subsequently assayed for 20α-HSD activity.
(§3) More particularly, purified bacterially expressed recombinant 20α-HSDwas first incubated in […] Tris-HCl (pH 8), 1 mM MgCl2, 1 mg/ml BSA, 0.5 mM dithiothreitol, and 60 U alkaline phosphatase coupled to agarose beads for 30 min. at 30° C. After centrifugation, the supernatant containing 20α-HSD was used as a substrate in various in vitro kinase assays. The protein kinase A (PKA), protein kinase C (PKC) and insulin receptor-associated tyrosine kinase activities were measured as described previously [Raz et al., Biochem. J. 269:603-607 (1990), Azhar et al., Am J. Physiol, 260:E1-E7 (1991)]. src kinase (p60^src) activity was assayed as described by Simonson and Herman [Simonson et al., J. Biol Chem., 268:9347-9357 (1993)]. […]

protein kinase A (PKA) = experiment: In vitro kinase assay, phosphorylation of 20α-HSD by PKA; format: biochemical; details: bacterially expressed enzyme, [γ-32P]ATP
Description: as §2, §3

[2] = Cyclooxygenase assay: conversion of [3H]arachidonic acid; format: biochemical; details: purified preparations from either expression system
Description: as §1

[3] = tested on: Pregnant Sprague-Dawley rats; experiment: Anti-reproductive effect in pregnant rats: serum progesterone (RIA) and termination of pregnancy; format: in vivo, rat
Description: Pregnant Sprague-Dawley rats were treated with purified 20α-HSD produced by a bacterial expression system (see Example 1) to assess the effect of the enzyme on (1) progesterone levels and (2) the possible termination of pregnancy. More particularly, animals were divided into two treatment groups (7 rats per group: 6 receiving treatment, 1 control) and were injected (intraperitoneally) with the purified recombinant 20α-HSD and an eqimolar dose of NADPH. Injections were administered on day 8 of pregnancy and continued for 72 hours.
Group 1 received intraperitoneal injections of the purified 20α-HSD (167 μg with an equimolar dose of NADPH) every 4 hours, continuing for 72 hours. Group 2 received intraperitoneal injections of the purified 20α-HSD (250 μg with an equimolar dose of NADPH) every 6 hours, continuing for 72 hours. The control treatment groups received an equal amount of GST alone with an eqimolar dose of NADPH. Blood samples were collected every 12 hours via jugular veins. Serum progesterone levels were determined by standard radioimmunoassay techniques [Gibori et al., Endocrinology 100:1483-1495 (1977)].

[4] = tested on: insulin receptor-associated tyrosine kinase; experiment: In vitro kinase assay, phosphorylation of 20α-HSD by insulin receptor tyrosine kinase; format: biochemical; details: bacterially expressed enzyme
Description: as §2
(§4) More particularly, purified bacterially expressed recombinant 20α-HSDwas first incubated in […] Tris-HCl (pH 8), 1 mM MgCl2, 1 mg/ml BSA, 0.5 mM dithiothreitol, and 60 U alkaline phosphatase coupled to agarose beads for 30 min. at 30° C. After centrifugation, the supernatant containing 20α-HSD was used as a substrate in various in vitro kinase assays. The protein kinase A (PKA), protein kinase C (PKC) and insulin receptor-associated tyrosine kinase activities were measured as described previously [Raz et al., Biochem. J. 269:603-607 (1990), Azhar et al., Am J. Physiol, 260:E1-E7 (1991)]. src kinase (p60^src) activity was assayed as described by Simonson and Herman [Simonson et al., J. Biol Chem., 268:9347-9357 (1993)].

src kinase (p60^src) = experiment: In vitro kinase assay, phosphorylation of 20α-HSD by src kinase; format: biochemical; details: bacterially expressed enzyme
Description: as §2, §4

recombinant 20α-HSD = target: T1, recombinant 20α-HSD (Rattus norvegicus, UniProt P51652); experiment: Catalytic activity of phosphorylated versus non-phosphorylated 20α-HSD, radiochemical; format: biochemical; parameters: a DNA fragment of 1.2 Kb containing the entire coding region of 20α-HSD; GST (removed with thrombin) (N, cleaved yes); made in house; host or cells: E. coli DH5α (pGEX-4T-2)
T1 sequence (P51652 1-323): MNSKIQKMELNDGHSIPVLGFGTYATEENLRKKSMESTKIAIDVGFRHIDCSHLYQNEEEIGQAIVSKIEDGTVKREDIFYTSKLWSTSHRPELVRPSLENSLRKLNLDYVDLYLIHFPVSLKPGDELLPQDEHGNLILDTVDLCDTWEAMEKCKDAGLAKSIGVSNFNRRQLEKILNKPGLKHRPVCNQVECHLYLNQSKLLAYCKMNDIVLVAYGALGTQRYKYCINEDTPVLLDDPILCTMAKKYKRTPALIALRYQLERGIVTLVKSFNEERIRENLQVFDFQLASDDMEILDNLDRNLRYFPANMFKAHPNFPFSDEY
Description: Enzyme activity of the recombinant 20α-HSD was determined by the rate of conversion of [1-2^3 H]-20α-hydroxy-pregn-4-ene-3-one (20α-hydroxprogesterone) to [1,2^3 H]progesterone in the presence of NADPH as described by Jones & Hsueh [J. Biol. Chem. 256:1248-1254 (1981)]. Enzyme activity was measured in this manner due to the fact that in an in vitro setting the reaction may be reversed, i.e. conversion of 20α-hydroxyprogesterone to progesterone. The assay mixtures (0.05 ml) contained 100 μM [1,2^3 H]hydroxyprogesterone [Dupont-New England Nuclear Research Products, Boston Mass.] […] Following incubation at 37° C. for 30 minutes, the [^3 H]progesterone content of each sample was determined after isolation by thin layer chromatography isolation. One unit of enzyme activity is defined as that amount of enzyme catalyzing the formation of 1 nmol of [^3 H]progesterone/minute from [1,2^3 H]hydroxyprogesterone. Specific activity is expressed as units/min/mg protein. The protein concentration was determined by the Bradford method using bovine serum albumin [Sigma Chemical Co, St. Louis, Mo.] as the standard [Bradford, Anal. Biochem. 72:248-254 (1976)]. […] Acta. 799:51-58 (1984); Noda et al., Biochim Biophys. Acta. 1079:112-118 (1991)]. […]

[5] = Group 1 protocol, laparoscopy at 72 hour end point

B1: 20α-hydroxysteroid dehydrogenase (protein)
chain: T1 sequence (P51652 1-323)
peroxidase activity [1]: Neither peroxidase not cyclooxygenase activity was detected
phosphorylation of 20α-HSD by PKC (purified rat liver PKC): readily phosphorylated
phosphorylation of 20α-HSD by PKA (protein kinase A (PKA)): readily phosphorylated
cyclooxygenase activity [2]: Neither peroxidase not cyclooxygenase activity was detected
time to significant decline of serum progesterone levels ([3]; Group 1: 167 μg i.p. every 4 hours): ≤ 48 h
animals aborted totally [3, 5]: 5 animals
animals partially aborting [3, 5]: 2 animals
time to significant decline of serum progesterone levels ([3]; Group 2: 250 μg i.p. every 6 hours): 60 h
time to termination of pregnancy ([3]; pregnant rats, i.p. with equimolar NADPH from day 8 of pregnancy): ≤ 72 h
circulating progesterone ([3]; pregnant rats, i.p. with equimolar NADPH from day 8 of pregnancy, bacterially expressed enzyme): marked decrease
phosphorylation of 20α-HSD by insulin-receptor-associated tyrosine kinase [4]: failed to phosphorylate
phosphorylation of 20α-HSD by src kinase (src kinase (p60^src)): failed to phosphorylate
20α-HSD activity after phosphorylation with PKA (recombinant 20α-HSD): not significantly affected
20α-HSD activity after phosphorylation with PKC (recombinant 20α-HSD; ATP-Mg2+, diacylglycerol, phosphatidylserine): unaffected

From patent US6001353A, “20α-alpha-hydroxy steroid dehydrogenase related material and methods” (priority 1997, dated 1999)
